According to paper PMC7718890:

Key:
CarD K90A;MTB RNAP (WT) = CarD K90A;MTB RNAP (WT) (Mycobacterium …, UniProt P9WJG3;P9WGZ1;P9WGY9;P9WGY7;P9WGY5 1-162;1-347;1-1178;1-1316;1-110, K90A|); assay: competition (fluorescence polarization); conditions: protein: recombinant;recombinant; tags: ;; copies: 1;2;1;1;1; blunt
CarD R47E;MTB RNAP (WT) = CarD R47E;MTB RNAP (WT) (Mycobacterium …, UniProt P9WJG3;P9WGZ1;P9WGY9;P9WGY7;P9WGY5 1-162;1-347;1-1178;1-1316;1-110, R47E|); assay: competition (fluorescence polarization); conditions: protein: recombinant;recombinant; tags: ;; copies: 1;2;1;1;1; blunt

B1: rrnAP3 native 61 bp (dsDNA)
DNA 1: GATGACCGAACCTGGTCTTGACTCCATTGCCGGATTTGTATTAGACTGGCAGGGTTGCCCC
DNA 2: GGGGCAACCCTGCCAGTCTAATACAAATCCGGCAATGGAGTCAAGACCAGGTTCGGTCATC
- Ki (CarD K90A;MTB RNAP (WT)): 85 ± 6 nM
- Ki (CarD R47E;MTB RNAP (WT)): 129 ± 14 nM
